For six molecules, binding result and Kd results are on record in patent publication US20210269545A1 (published 2021).

Positions count from the first letter of the chain named.

By Kd is commonly meant the free concentration of one partner at which half of the binding sites on the other are occupied at equilibrium, for simple one-to-one binding. Lower therefore signals tighter binding.

First the molecules themselves.
B1: BS1M-2 (bispecific antibody)
heavy 1: QVQLVQSGAEVKKPGSSVKVSCKASGGTFSSYAFSWVRQAPGQGLEWMGRVTPFLGTANSAQKFQGRVTITADKSTSTAYMELSSLRSEDTAVYYCARDDIAALGPFDYWGQGTLVTVSS
heavy 2: not shown
light: not shown
notes: Variant of BS1; not shown: heavy chain constant region of the BS1 format
B2: BS1M-9 (bispecific antibody)
heavy 1: B1 heavy 1 with T52I, F54Q, L55Q
heavy 2: not shown
light: not shown
notes: as for B1
B3: BS1M-8 (bispecific antibody)
heavy 1: B1 heavy 1 with T52I, F54H, L55Q
heavy 2: not shown
light: not shown
notes: as for B1
B4: BS1M-5 (bispecific antibody)
heavy 1: B1 heavy 1 with F54H
heavy 2: not shown
light: not shown
notes: as for B1
B5: BS1M-4 (bispecific antibody)
heavy 1: B1 heavy 1 with T52I, F54H
heavy 2: not shown
light: not shown
notes: Variant of BS1 in the CDR-H2 of the anti-CD38 arm; not shown: heavy chain constant region of the BS1 format
B6: BS1M-7 (bispecific antibody)
heavy 1: B1 heavy 1 with T52I, F54Q
heavy 2: not shown
light: not shown
notes: as for B5

The target in one assay is T1, CD38 (human, UniProt P28907 43-300, limits assumed).
T1 construct: Soluble antigen of the bio-layer interferometry experiments; also called Cluster of Differentiation 38; CD38 antigen (Octet)
The experiment in a line: BLI (Octet Red), antibody on anti-hIgG Fc (AHC) sensor.
Protocol: Binding experiments were performed on Octet Red at 25° C. The antibodies were loaded onto anti-hIgG Fc Capture (AHC) biosensors for 300 seconds. The ligand-loaded sensors were dipped into a two-fold series dilution (starting at 300 nM) of the antigens (CD19 and CD38) for 240 seconds of CD19 and 150 seconds of CD38 for association followed by dissociation for 600 seconds of CD19 and 130 seconds of CD38. Kinetic constants were calculated using a monovalent (1:1) binding model.
Turning to B1, the binding result is “no binding”.

B2: the binding result was “no binding”.

For B3, the binding result is “no binding”.

For B4, the binding result is “no binding”.

Another assay addresses T1, CD38. The experiment in a line: BLI (Octet Red), antibody on anti-hIgG Fc (AHC) sensor, 1:1 model.
B5 showed a Kd of 94.4 nM.

B6 registered a Kd of 60.5 nM. Compared with the last molecule, the Kd is about 1.6-fold lower.
